Target: thrombin (human plasma, Sigma-Aldrich) (Homo sapiens, UniProt P00734;P00734 328-363;364-622)
Test: EMSA; 1 nM aptamer, thrombin 0.1x-100x; SICS: thrombin in 1 M KCl (or 150 mM KCl), pH 7.5, 30 min incubation, 300 mV; gel: 16% Tris-Glycine; temperature not stated

B1: extended TBA 1 annealed to Cy5 gap oligo (mixed)
DNA 1: TCAGCTTGCGGAGATGCGATGGTTGGTGTGGTTGGATCGAGAAAAAGGTACGCCC
DNA 2: GGGCGTACCTTTTTCTCGATATCGCATCTCCGCAAGCTGA
**Q.** Does B1 bind?
**A.** binds

Reference: PMC11984302
